# Numbering of substitutions follows the chain as printed.
# B1: Ab42 (antibody, human IgG1, kappa, V domains shown)
# VH: EVQLVQSGAEVKKPGSSVKVSCKASGGTFTSYWIHWVRQAPGQGLEWIGEIDPSDSYTNYAQKFQGRVTITVDKSTSTAYMELSSLRSEDTAVYYCARSFFTNWFAYWGQGTLVTVSS
# VL: DVVMTQTPLSLSVTPGQPASISCRSSQSLVHSNGNTYLHWYLQKPGQSPQLLIYKVSNRFSGVPDRFSGSGSGTDFTLKISRVEAEDVGVYFCSQSTHVPFTFGGGTKVEIKR
# B2: Ab22 (antibody, human IgG1, kappa, V domains shown)
# VH: EVQLVQSGAEVKKPGSSVKVSCKASGGTFTTYWMHWVRQAPGQGLEWIGEIDPSDSYSNYAQKFQGRVTITVDKSTSTAYMELSSLRSEDTAVYYCARNGGLGPAWFSYWGQGTLVTVSS
# VL: DIQMTQSPSSVSASVGDRVTITCKASQYVGTAVAWYQQKPGKAPKLLIYSASNRYTGVPSRFSGSGSGTDFTLTISSLQPEDFATYYCQQYSSYPWTFGGGTKVEIKR
# B3: Ab23 (antibody, human IgG1, kappa, V domains shown)
# VH: B2 VH
# VL: B2 VL with A43S, G64D, Y87F
# B4: Ab25 (antibody, human IgG1, kappa, V domains shown)
# VH: B2 VH
# VL: EIVMTQSPATLSVSPGERATLSCKASQYVGTAVAWYQQKPGQSPRLLIYSASNRYTGVPARFSDSGSGTEFTLTISSLQSEDFAVYFCQQYSSYPWTFGGGTKVEIKR
# B5: Ab24 (antibody, human IgG1, kappa, V domains shown)
# VH: B2 VH
# VL: B4 VL with S43A, V58I, D64G, F87Y
# B6: Ab32 (antibody, human IgG1, kappa)
# heavy: not shown
# light: DIVMTQTPLSLSVTPGQPASISCRSSQRLVHSNGNTYLHWYLQKPGQSPQLLIYKVSNRFSGVPDRFSGSGSGTDFTLKISRVEAEDVGVYYCSQSTHVPWTFGGGTKVEIKRTVAAPSVFIFPPSDEQLKSGTASVVCLLNNFYPREAKVQWKVDNALQSGNSQESVTEQDSKDSTYSLSSTLTLSKADYEKHKVYACEVTHQGLSSPVTKSFNRGEC
# B7: Ab34 (antibody, human IgG1, kappa)
# heavy: not shown
# light: B6 light with I2V
# B8: Ab41 (antibody, human IgG1, kappa)
# heavy: not shown
# light: B6 light with R28S, W101F
# B9: Ab33 (antibody, human IgG1, kappa, V domains shown)
# VH: B1 VH with Y32F, I34M, E50V, S56T, K74E, S99G, F100D, F101Y, T102S, A106T
# VL: B1 VL with S28R, F101W
# B10: Ab43 (antibody, human IgG1, kappa)
# heavy: not shown
# light: B6 light with I2V, R28S, W101F
# Target: T1, human PRLR on cells (human, UniProt P16471 25-622)
# T1 sequence: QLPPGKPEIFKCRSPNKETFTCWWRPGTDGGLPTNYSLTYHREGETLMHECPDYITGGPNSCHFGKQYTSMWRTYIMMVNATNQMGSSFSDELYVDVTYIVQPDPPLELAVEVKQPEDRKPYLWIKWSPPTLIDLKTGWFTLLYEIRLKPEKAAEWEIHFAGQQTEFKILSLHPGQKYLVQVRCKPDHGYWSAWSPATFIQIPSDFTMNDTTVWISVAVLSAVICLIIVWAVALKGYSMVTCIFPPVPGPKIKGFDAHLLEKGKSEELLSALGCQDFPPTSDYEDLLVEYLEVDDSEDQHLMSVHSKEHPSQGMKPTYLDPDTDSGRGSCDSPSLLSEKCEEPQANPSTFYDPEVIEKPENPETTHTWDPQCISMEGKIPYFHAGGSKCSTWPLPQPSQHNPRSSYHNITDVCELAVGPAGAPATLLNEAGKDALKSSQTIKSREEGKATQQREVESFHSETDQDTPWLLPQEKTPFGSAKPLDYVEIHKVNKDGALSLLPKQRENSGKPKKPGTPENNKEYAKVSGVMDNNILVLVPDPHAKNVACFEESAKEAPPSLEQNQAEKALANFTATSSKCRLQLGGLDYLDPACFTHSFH
# Assay: cell-based or functional assay
row,Binder,Baf3-hPRLR proliferation IC50 [µg/mL]
1,B1,4.76
2,B2,> 30
3,B3,> 30
4,B4,> 30
5,B5,> 30
6,B6,> 30
7,B7,> 30
8,B8,4.38
9,B9,> 30
10,B10,6.75

# Source: patent US20170022281A1 (AbbVie / Abbott, published 2017)
